The text below walks through data of US20180305421A1 (SHIRE HUMAN GENETIC THERAPIES, published 2018).

For experiment [1], the target named is T1, myostatin (UniProt O14793 267-375).
T1 sequence (looked up): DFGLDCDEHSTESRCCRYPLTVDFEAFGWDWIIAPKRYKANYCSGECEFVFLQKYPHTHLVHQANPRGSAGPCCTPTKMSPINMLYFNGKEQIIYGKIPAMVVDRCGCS
As to the kind of experiment: Biacore SPR (Table 3). The source says: (§1) Specifically, commercially available follistatins (FS315, manufactured by R&D Systems and follistatin-Fc human chimera FS315-hFc, manufactured by Sino Biological), and FS315-GAG3-mFc fusion proteins were used to assess binding affinity and kinetics to activin, myostatin, and BMPs using Biacore assays. Briefly, FS315 was immobilized onto a CM5 chip, and follistatin-Fc fusion proteins were captured using human or mouse antibody capture kits (GE Healthcare). Post amine-coupling, a concentration series of activin, myostatin, or BMPs (e.g., BMP-2, -4, -6, -7, -9, -10, and GDF-1) was added as soluble analyte at 25° C. sActRTIB-hFc was used as a control. Binding affinities (Kd) and kinetics were determined using standard methods.
On the technique in general: Surface plasmon resonance follows binding to a sensor surface in real time, without labels.

Experiment [2] addresses T2, activin (UniProt P08476 311-426).
T2 construct: also called activin A
T2 sequence (looked up): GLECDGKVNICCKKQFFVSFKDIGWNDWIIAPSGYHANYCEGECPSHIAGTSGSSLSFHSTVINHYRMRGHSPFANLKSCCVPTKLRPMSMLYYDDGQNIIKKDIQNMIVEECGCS
As to the kind of experiment: Biacore SPR, 25 C; Fc fusion captured with mouse antibody capture kit, ligand as soluble analyte.
Text: as §1

The target of a further experiment is T3, BMP-4 (UniProt P12644 293-408).
T3 sequence (looked up): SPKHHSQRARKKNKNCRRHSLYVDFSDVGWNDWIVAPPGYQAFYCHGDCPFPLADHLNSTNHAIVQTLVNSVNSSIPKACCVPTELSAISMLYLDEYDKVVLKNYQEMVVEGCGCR
The experiment is described as above.
Text: as §1

Experiment [3] has as its target T1, myostatin. The experiment is described as above.
Text: as §1

The target in the next experiment is T4, GDF-11 (UniProt O95390 299-407).
T4 sequence (looked up): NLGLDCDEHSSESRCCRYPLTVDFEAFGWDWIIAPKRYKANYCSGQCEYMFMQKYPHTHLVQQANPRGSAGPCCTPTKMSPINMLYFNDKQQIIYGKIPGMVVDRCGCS
Described as above.
Text: as §1

Another experiment concerns the target T5, BMP-10 (UniProt O95393 317-424).
T5 sequence (looked up): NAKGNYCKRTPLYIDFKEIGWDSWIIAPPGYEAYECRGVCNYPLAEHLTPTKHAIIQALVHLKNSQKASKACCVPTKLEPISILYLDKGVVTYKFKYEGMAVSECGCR
As to the kind of experiment: Biacore SPR, 25 C; Fc fusion captured with antibody capture kit, ligand as soluble analyte.
Text: as §1

A further experiment concerns the target BMP-2 (UniProt P12643 283-396). The description is as above.
Text: as §1

Another experiment concerns the target T6, BMP-9 (UniProt Q9UK05 320-429).
T6 sequence (looked up): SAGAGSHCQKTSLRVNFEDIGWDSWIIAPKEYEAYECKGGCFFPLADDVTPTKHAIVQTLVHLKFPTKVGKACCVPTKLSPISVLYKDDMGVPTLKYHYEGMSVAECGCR
Described as above.
Text: as §1

In experiment [4] the target is T1, myostatin. In words: cell-based or functional assay.
The target of experiment [5] is T2, activin. As to the kind of experiment: cell-based or functional assay.
For experiment [6], the target named is T1, myostatin. As to the kind of experiment: cell-based or functional assay. This is another data set of the same source.

Sequence of BMP-2 (P12643 283-396 limits assumed): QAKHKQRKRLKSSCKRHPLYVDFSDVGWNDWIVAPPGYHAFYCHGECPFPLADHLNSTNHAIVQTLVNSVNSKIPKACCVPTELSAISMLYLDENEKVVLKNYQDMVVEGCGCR

B1: FS315-GAG3-mFc (Fc fusion)
chain: GNCWLRQAKNGRCQVLYKTELSKEECCSTGRLSTSWTEEDVNDNTLFKWMIFNGGAPNCIPCKETCENVDCGPGKKCRMNKKNKPRCVCAPDCSNITWKGPVCGLDGKTYRNECALLKARCKEQPELEVQYQGRCKKTCRDVFCPGSSTCVVDQTNNAYCVTCNRICPEPASSEQYLCGNDGVTYSSACHLRKATCLLGRSIGLAYEGKCIKAKSCEDIQCTGGKKCLWDFKVGRGRCSLCDELCPDSKSDEPVCASDNATYASECAMKEAACSSGVLLEVKHSGSCNSISEDTEEEEEDEDQDYSFPISSILEWGAPGGGGGAAAAAGGGGGGAPGGGGGAAAAAGGGGGGAPGGGGGAAAAAGGGGGGAPGCKPCICTVPEVSSVFIFPPKPKDVLTITLTPKVTCVVVDISKDDPEVQFSWFVDDVEVHTAQTQPREEQFNSTFRSVSELPIMHQDWLNGKEFKCRVNSAAFPAPIEKTISKTKGRPKAPQVYTIPPPKEQMAKDKVSLTCMITDFFPEDITVEWQWNGQPAENYKNTQPIMDTDGSYFVYSKLNVQKSNWEAGNTFTCSVLHEGLHNHHTEKSLSHSPGK
notes: also called FS315-mFc; FS315-Fc
The Kd is the constant that tells how readily two partners part at equilibrium. For B1, the “fold increase of binding affinity against follistatin (FS315)” value with myostatin [1] is ≥ 10 fold. The Kd amounted to 0.038 pM with activin [2], 81 nM with BMP-4, 0.073 pM with myostatin [3] and 0.018 pM with GDF-11. For the same molecule, the binding result in the experiment with BMP-10, with BMP-2 and with BMP-9 was “no binding” each time. Also, in the experiment with myostatin [4], the “IC50 (read off the curve); CAGA-luciferase reporter in HEK293 cells, myostatin (1.2 nM)-induced Smad2/3 signalling” value is ~0.3 nM. The “IC50, CAGA-luciferase reporter assay for Smad2/3 signaling (1.2 nM activin)” value with activin [5] worked out at 0.36 nM. For the same molecule, the “IC50, CAGA-luciferase reporter assay for Smad2/3 signaling (1.2 nM myostatin)” value with myostatin [6] came out at 0.46 nM.
